Source: patent publication US20240327502A1 (Merck Sharp & Dohme, published 2024)
Residue numbers refer to the chain shown, from its start.

B1: M3D10 (antibody, V domains shown)
VH: QVQLQESGPGLVKPSETLSLTCTVSGGSVSTYYWTWIRQPPGKGLDWIGYIYHNGNINYNPSLKSRVTMSVDTSKNQFSLKLTSVTAADTALYYCATVSFIGYSLYYFDRWGQGTLVTVSS
VL: DIQMTQSPSSLSASVGDRVTITCRASQNIASFLNWYQQRPGKAPDLLIYAASTLQTGVPSRFSGSGSGTDFTLAISSLQPEDFATYYCQQSYNTPFTFGQGTKLEIK
notes: IgG
B2: M1A04 (antibody, V domains shown)
VH: EVQLVESGGGLVRPGGSLRLSCAASGFNVRNYYMSWVRQAPGKGLEWISVIYGGGTTFYAGSVKGRFTISRDDSKSTLFLQMNSLRADDTAVYYCARDPGTVMSTENLQGMDVWGQGTTVTVSS
VL: DIQMTQSPSSLSASVGDRVTITCRASQTIRSYLNWYQQKPGKAPNLLIYAATSLQSGVPSRFSGSGSGTDFTLTISSLQPEDSATYYCQQSFSTLYSFGQGTRLEIK
notes: IgG
B3: M3A08 (antibody, V domains shown)
VH: EVQLVESGGGLVKPGGSLRLSCAASGFSITSYGMHWVRQAPGKGLEWVSSISSSSSYISYRDSVKGRFTVSRDNAGNSLSLQMNSLRGEDTAVYHCARDAGLVPPWMDSWGQGTLVIVSS
VL: QSVLTQPPSVSGAAGQRVTISCTGSSSNLGTGYDVHWYRQQPGTAPKLIMFGNTNRPSGVPGRFSGSRSGTSASLAITGLQADDEADYYCQSYDSSLGGLVFGGGTKLTVL
notes: IgG
B4: M3C11 (antibody, V domains shown)
VH: QVQLQESGPGLVKPSETLSLTCTVSGGSLSSYCWSWIRQPPGKGLEWIGYIYYSGGTNYNPSLKSRVTISVDTSKNQFSLNLSSVTAADTAVYYCARGEASGYLNYYFDYWGQGTLVAVSS
VL: SYELTQPPSVSVSPGQTASITCSGHKLGDKYAYWYQQKPGQSPVLVIYQDNKRPSGIPERFSGSNSGNTATLTISGTQAMDEADYYCQAWDSGTVFGGGTKLTVL
notes: IgG
B5: M3E10 (antibody, V domains shown)
VH: QVQLVQSGAEVKKPGSSVKVSCKASGGTINSYAISWVRQAPGQGPEWLGGIIPIFGTANYAQNFPGRVTITADASTSTVYMELSSLRSDDTAIYYCARGTRYIAVMVPSMQDYYFFGMDVWGQGTTVTVSS
VL: DIQLTQSPSFLSASVGDRVTITCRASQGISSYLAWYQQKPGQAPKLLIYAASTLQSGVPSRFSGSGSGTEFTLTISSLQPEDFATYYCQQVTSYPFSITFGQGTRLEIK
notes: IgG
B6: M2B06 (antibody, V domains shown)
VH: QVQLQESGPRLVKPSGTLSLTCAVSGASITSSHWWTWVRQPPGKGLEWIGRIFHSGSTNYNPSLKSRVTISLDKSRNQFSLTLTSVTAADTAVYYCARDDQIVVMPAGFDRWGQGALVIVSS
VL: DIQMTQSPSSLSASVGDRVTITCRASQTISSYLNWYQQTPGKAPNLLIYGASRLQGGVPSRFSGSGSGTDFTLTISSLQPEDFAIYFCQQSKSIPYTFGQGTRLEIK
notes: IgG
B7: M3A01 (antibody, V domains shown)
VH: EVQLVESGGGLVKPGGSLRLSCSVSAFSISGYNMHWVRQAPGKGLEWVSSITGGSNYINYADSVKGRFTISRDNAQNSLYLQMKSLRAEDTAVYYCARETQPSPGSFDSWGQGTLVTVSS
VL: QSVLTQPPSVSGAPGQRVTISCTGSSSNIGAGYDVNWYQQLPGTAPKLLIYGNYNRPSGVPDRFSASKSGTSASLAITGLQAEDEADYWCQSYDTSLSGWIFGGGTKLTVL
notes: IgG
B8: M3E04 (antibody, V domains shown)
VH: EVQLVESGGGLVKPGGSLRLSCAGSGFTFSSYSMNWVRQAPGKGLEWVSSISASSSYIYYADSLKGRFTISRDNAKNSLYLQMNSLRAEDTAVYYCARANYGSGNYYNPKWFDPWGQGTLVTVSS
VL: B7 VL with N36H, L41F, L48V, Y54N, A66G, T78S, W89Y, T95S, W100S
notes: IgG
B9: M2A11 (antibody, V domains shown)
VH: QVQLQESGPGLVKPSETLSLTCTVSGGSITSHYWSWVRQPPGKGLEWIAYIYYSGSTDYNPSLKSRVTISLDTSKNQVSLRLNSVTTADTAVYFCARCMPLYHVMHVWGHGTTVTVSS
VL: B7 VL with N28D, Y33S, N36H, Y54T, A66G, W89Y, T95S, S96G, W100Y, I101V
notes: IgG
B10: M3C04 (antibody, V domains shown)
VH: EVQLVQSGAEVKKPGESLKISCKGSGYNFANYWIGWVRQMPGKGLEWMGIIYPGDSDTRRNPSFQGHVTMSVDQSISTAYLQWSSLKASDTAMYYCARPLAVSAFDIWGQGTMVTVSS
VL: DIQMTQSPSSLSASVGDKLTITCRASQSISNYLNWYQQKSGKAPKLLIYAASSLQSGVPSRFSGSGSGTDFTLTISSLQPEDFATYYCQQSASTPHTFGQGTKVEIV
notes: IgG
B11: M2D11 (antibody, V domains shown)
VH: QVQLQQWGAGLLKPSETLSLTCAVSGGSFSGYHWTWIRQPPGKGLEWIGEVDHGGNTNYNPSLMSRVTISVDMSTKQFSLRLTSMTAADTAVYYCARGFGVVINNWFDPWGQGTLVTVTS
VL: DIQMTQSPSSLSASVGDRVTITCRASQTISSYLNWYQQKPGKAPNLLIYTVSTLQSGVPSRFSGSGSGTDFTLTISSLQPEDFATYYCQQSYGAPYTFGQGTKLEIK
notes: IgG
B12: M7D5 (antibody, V domains shown)
VH: QVQLVQSGAEVKKPGSSVKVSCKASGGTLSNYAISWVRQAPGQGLEWMGGIIPIFGTAMYAHNFQDRVTFTADESTNTVYMAVSRLTSDDTAVYYCAQDRTVTKYAHGLDVWGQGTTVTVSS
VL: DIQMTQSPSSLSASVGDRITITCPASQSLLTYLNWYQQKPGKAPKLLIYSASELPSGVPSRFSGSGSGTEFTLTVTGLQPDDFATYYCQQSHTTPLTFGGGTKVEIKR
notes: IgG
B13: M3D05 (antibody, V domains shown)
VH: QVQLVQSGAEVKQPGASVKVSCKASGYTFSGYYIQWVRQAPGQGLEWMGWINPNSGGTNFAQKFQGRVTMTSDTSTSAAYMELSSLRSDDTAVYYCVRGQQLTRQYYFGMDVWGQGTTVTVSS
VL: QSVLTQPPSVSGAPGQRVIISCSGSSSNIRSNAVNWYQQLPGKAPKLLIFYDGLLPSGVSDRFSGSKTGNSASLAISGLQSEDEADYYCAAWDDSLNGPVFGGGTKLTVL
notes: IgG
B14: M2B01 (antibody, V domains shown)
VH: QVQLVESGGGVVQPGKSLRLSCAASGFTFSSHAMDWVRQVPGKGLEWVAVISYDGSNRYYADSVKGRFTISRDTSKNTLYLQMNSLRPEDTAVYYCARDFQPSPMVYGVGYFDYWGQGTLVTVSP
VL: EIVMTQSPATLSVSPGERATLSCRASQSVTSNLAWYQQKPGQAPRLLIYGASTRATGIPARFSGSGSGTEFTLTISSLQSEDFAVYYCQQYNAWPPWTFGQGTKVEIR
notes: IgG
B15: M4A06 (antibody, V domains shown)
VH: EVQLVESGGGLVRPGGSLRLSCAASGFSLTTDEVNWVRQAPGKGPEWVSFISASGHTIYYADSVKGRFTISRDNGRNSVYLQMNSLRAEDTAVYYCARVGRLGGVGYYYALGPFDLWGQGTMVTVSS
VL: EIVLTQSPGTLSLSPGERATLSCRASQSITSNYLAWYQQKPGQAPRLLIYGASSRATGIPDRFSGSGSGTDFTLTISRLQPEDFAVYYCQQYGSSLYIFGQGTKLEIK
notes: IgG
B16: M2C07 (antibody, V domains shown)
VH: QVQLQESGPGLVAPSQTLSLICDVSGDSVTSGAYSWSWIRQHPVKGLEWIAYINYSGRTNYNPSLQSRLVISVDRSKNQFSLRLSSVTAADTAVYYCARANVVGYSGFYFDYWGQGTLVAVSS
VL: DIQMTQSPSSLSASVGDTVTITCRASQSVGAYLNWYQQKPGKAPKLLVFAGSSLQTGVPSRFSGRGSRTEFTLTITNLQREDFASYYCQQSLGDFLTFGGGTKVEIK
notes: IgG
B17: M2D03 (antibody, V domains shown)
VH: B16 VH with Y34H, F108Y
VL: B16 VL with T18R, V48I, T76S, S85T
notes: IgG

Biological target: T1, Unprocessed hMPV PreF trimer (human metapneumovirus, strain B2)
T1 construct: also called Unprocessed hMPV WT PreF trimer; unprocessed hMPV PreF trimeric antigen
Assay: BLI, mAb on anti-human Fc sensor

Binder	Octet binding response [nm]
B1	0.38
B2	0.453
B3	0.422
B4	0.317
B5	0.351
B6	0.389
B7	0.251
B8	0.3
B9	0.285
B10	0.379
B11	0.41
B12	0.296
B13	0.338
B14	0.315
B15	0.36
B16	0.418
B17	0.425

Biological target: T2, Processed stabilized hMPV PreF trimer (115BV) (human metapneumovirus, strain B2)
T2 construct: also called Processed hMPV PreF trimer; processed PreF
Assay: BLI, mAb on anti-human Fc sensor

Binder	Octet binding response [nm]
B1	0.397
B2	0.557
B3	0.249
B4	0.0794
B5	0.17
B6	0.401
B7	0.261
B8	0.0401
B9	0.0658
B10	0.31
B11	0.436
B12	0.347
B13	0.0831
B14	0.0607
B15	0.281
B16	0.44
B17	0.466

Biological target: T3, hMPV PostF trimer (human metapneumovirus, strain B2)
T3 construct: also called MPV PostF (dPFv1)
Assay: BLI, mAb on anti-human Fc sensor

Binder	Octet binding response [nm]
B1	0.473
B2	0.618
B3	-0.0217
B4	0.433
B5	0.0082
B6	0.436
B7	-0.062
B8	0.0262
B9	0.293
B10	0.409
B11	0.43
B12	0.0826
B13	0.539
B14	0.465
B15	0.449
B16	0.454
B17	0.503

Biological target: T2, Processed stabilized hMPV PreF trimer …
Assay: BLI, ratio to unprocessed PreF trimer

Binder	processed/unprocessed PreF trimer binding ratio
B1	1.04
B2	1.23
B3	0.59
B4	0.25
B5	0.48
B6	1.03
B7	1.04
B8	0.13
B9	0.23
B10	0.82
B11	1.06
B12	1.17
B13	0.25
B14	0.19
B15	0.78
B16	1.05
B17	1.1
